Reference: US10919943B2, “Mutant proteins enabling agrochemical control of plant gene expression” (The Regents of the University of California, priority 2016, dated 2021)
Where a chain is given by its changes, count along the chain named. In names and notes the source's numbering stands.

B1: P148V: PYR1 mutant (protein, UniProt O49686 1-191, looked up, variant P148V)
Abscisic acid receptor PYR1: MPSELTPEERSELKNSIAEFHTYQLDPGSCSSLHAQRIHAPPELVWSIVRRFDKPQTYKHFIKSCSVEQNFEMRVGCTRDVIVISGLPANTSTERLDILDDERRVTGFSIIGGEHRLTNYKSVTTVHRFEKENRIWTVVLESYVVDMVEGNSEDDTRMFADTVVKLNLQKLATVAEAMARNSGDGSGSQVT
B2: P148W: PYR1 mutant (protein, UniProt O49686 1-191, looked up, variant P148W)
Abscisic acid receptor PYR1: B1 Abscisic acid receptor PYR1 with V148W
B3: P148C: PYR1 mutant (protein, UniProt O49686 1-191, looked up, variant P148C)
Abscisic acid receptor PYR1: B1 Abscisic acid receptor PYR1 with V148C
B4: P148Y: PYR1 mutant (protein, UniProt O49686 1-191, looked up, variant P148Y)
Abscisic acid receptor PYR1: B1 Abscisic acid receptor PYR1 with V148Y
B5: P148D: PYR1 mutant (protein, UniProt O49686 1-191, looked up, variant P148D)
Abscisic acid receptor PYR1: B1 Abscisic acid receptor PYR1 with V148D
B6: P148E: PYR1 mutant (protein, UniProt O49686 1-191, looked up, variant P148E)
Abscisic acid receptor PYR1: B1 Abscisic acid receptor PYR1 with V148E
B7: P148F: PYR1 mutant (protein, UniProt O49686 1-191, looked up, variant P148F)
Abscisic acid receptor PYR1: B1 Abscisic acid receptor PYR1 with V148F
B8: P148G: PYR1 mutant (protein, UniProt O49686 1-191, looked up, variant P148G)
Abscisic acid receptor PYR1: B1 Abscisic acid receptor PYR1 with V148G
B9: P148H: PYR1 mutant (protein, UniProt O49686 1-191, looked up, variant P148H)
Abscisic acid receptor PYR1: B1 Abscisic acid receptor PYR1 with V148H
B10: P148I: PYR1 mutant (protein, UniProt O49686 1-191, looked up, variant P148I)
Abscisic acid receptor PYR1: B1 Abscisic acid receptor PYR1 with V148I
B11: P148K: PYR1 mutant (protein, UniProt O49686 1-191, looked up, variant P148K)
Abscisic acid receptor PYR1: B1 Abscisic acid receptor PYR1 with V148K
B12: G150V: PYR1 mutant (protein, UniProt O49686 1-191, looked up, variant G150V)
Abscisic acid receptor PYR1: B1 Abscisic acid receptor PYR1 with V148P, G150V
B13: G150W: PYR1 mutant (protein, UniProt O49686 1-191, looked up, variant G150W)
Abscisic acid receptor PYR1: B1 Abscisic acid receptor PYR1 with V148P, G150W
B14: G150I: PYR1 mutant (protein, UniProt O49686 1-191, looked up, variant G150I)
Abscisic acid receptor PYR1: B1 Abscisic acid receptor PYR1 with V148P, G150I
B15: N151L: PYR1 mutant (protein, UniProt O49686 1-191, looked up, variant N151L)
Abscisic acid receptor PYR1: B1 Abscisic acid receptor PYR1 with V148P, N151L
B16: N151M: PYR1 mutant (protein, UniProt O49686 1-191, looked up, variant N151M)
Abscisic acid receptor PYR1: B1 Abscisic acid receptor PYR1 with V148P, N151M
B17: N151P: PYR1 mutant (protein, UniProt O49686 1-191, looked up, variant N151P)
Abscisic acid receptor PYR1: B1 Abscisic acid receptor PYR1 with V148P, N151P
B18: N151Q: PYR1 mutant (protein, UniProt O49686 1-191, looked up, variant N151Q)
Abscisic acid receptor PYR1: B1 Abscisic acid receptor PYR1 with V148P, N151Q

Test system: HAB1
Assay: Yeast two hybrid of pBD-PYR1 site saturation mutants with pACT-HAB1 on 10 μM ABA, β-galactosidase staining
Assay type: cell-based, Arabidopsis
Set-up: key: x: Mutations in PYR1 that disrupt ABA-induced binding to PYR1 to HAB1
Details: S. cerevisiae Y190, 10 μM ABA; dead = lack of visible staining in comparison to wild type control
Summary of the method: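 Binding was read by β-galactosidase staining of chloroform-lysed colonies after 2 days at 30° C on SD (-Leu, -Trp) plates containing 10 μM (+)-ABA. Yeast strain Y190 carried the BD-PYR1 single-substitution mutants plus the AD-HAB1 fusion. Absence of staining versus the wild-type control defined "dead" mutants.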

Row | Molecule | Mutations in PYR1 that disrupt ABA-induced binding to PYR1 to HAB1
1 | B1 | x
2 | B2 | x
3 | B3 | x
4 | B4 | x
5 | B5 | x
6 | B6 | x
7 | B7 | x
8 | B8 | x
9 | B9 | x
10 | B10 | x
11 | B11 | x
12 | B12 | x
13 | B13 | x
14 | B14 | x
15 | B15 | x
16 | B16 | x
17 | B17 | x
18 | B18 | x
